{"source": "paper PMC12136491", "about": "“Establishment of an efficient one-step enzymatic synthesis of cyclic-2,3-diphosphoglycerate” (Frontiers in Microbiology, 2025)", "molecular_target": "the molecule itself", "test": "SEC; native molecular mass; Superose Increase 10/300 column, 50 mM MES/KOH (pH 6.5), 400 mM KCl, flow rate 0.5 mL/min, 5 mg of protein loaded", "note": "Where “and” joins values, the source holds several entries; their conditions need not be identical. Identical values can stand only once.", "data": [{"protein": "cyclic-2,3-diphosphoglycerate synthetase from Methanothermus fervidus, recombinant, without affinity tag (enzyme, UniProt O93732 1-460, looked up, cyclic 2,3-diphosphoglycerate synthetase (cdpgs gene, 1,383 bp) of Methanothermus fervidus, Mfer_0077, CAA70986; calculated molecular mass 50.7 kDa; codon-optimized gene, no tag; also called MfcDPGS; cDPGS) MGETKKMICLVDGEHYFPVVKDSIEILDDLEHIDVVAVVFIGGTEKLQIEDPKEYSEKLGKPVFFGPDPKKIPYDVIKKCVKKYNADIVMDLSDEPVVDYTKRFRIASIVLKEGAVYQGADFKFEPLTEYDVLEKPSIKIIGTGKRIGKTAVSAYAARVIHKHKYNPCVVAMGRGGPREPEIVEGNKIEITAEYLLEQADKGVHAASDHWEDALMSRILTVGCRRCGGGMLGDTFITNVKRGAEIANKLDSDFVIMEGSGAAIPPVKTNRQIVTVGANQPMININNFFGPFRIGLADLVIITMCEEPMATTEKIKKVEKFIKEINPSANVIPTVFRPKPVGNVEGKKVLFATTAPKVVVGKLVNYLESKYGCDVVGVTPHLSNRPLLRRDLKKYINKADLMLTELKAAAVDVATRVAIEAGLDVVYCDNIPVVIDESYGNIDDAIIEVVEMAIDDFKNNR", "values": [{"measurement": "stoichiometry N", "result": "2 and 4"}]}]}
